Results on 15 molecules are retold here after patent publication US20220144940A1 (VIELA BIO, published 2022).

As a reminder, the EC50 is the concentration needed to bring the measured effect to its halfway point. A lower EC50 goes with greater potency.

“And” between values parts separate entries of the source, which are not always exact repeats. Equal entries are not always repeated.

The target in experiment [1] is T1, cynomolgus ILT7 (cynomolgus, UniProt P59901 24-499 (human entry)).
T1 construct: also called cyno ILT7; cynomolgus monkey ILT7
Kind of experiment: flow cytometry on cynomolgus ILT7-expressing cells, bottom panel, table 'Ec50 (pM)'. Here is the method: (§1) Binding of anti-ILT7 variants and isotype controls on human and cynomolgus ILT7 was assessed by flow cytometry analysis using CT-550 and cynoILT7 CT-125 cells respectively. CT-125 cells were used as control. Cells were resuspended in Blocking Buffer (PBS supplemented with 10% FBS) at a concentration of 5 million cells per mL and transferred into a round-bottom 96-well plates (BD Falcon™ Clear Microtest Plate, BD Biosciences) at 100 μL per well. Anti-ILT7 variants and control antibodies were added onto the cells for 30 min at 4° C. on a plate shaker. Cells were washed three times with PBS and resuspended in Blocking Buffer (100 μL/well). Human IgG binding on cell surface was detected using a secondary anti-human IgG antibody conjugated to DyLight 649 (1 in 1000 dilution). Cells were incubated in the dark for 30 min at 4° C. on a plate shaker. Cells were washed three times with PBS and surface fluorescence was acquired using LSRII Flow Cytometry System and FACSDiva Software (both from BD Biosciences).
In general terms: A flow cytometer gives signals particle by particle.

Experiment [2] addresses T2, HA-tagged human ILT7 on CT-550 cells (human, UniProt P59901 24-499).
T2 construct: whole, on cells; CT-550 cells: CT-125 cells (2B4 murine T-cell hybridoma with mouse FcεRIγ and NFAT-GFP reporter) transduced with HA-tagged human ILT7; also called human ILT7-expressing cells; not shown: HA tag
As to the kind of experiment: flow cytometry on human ILT7-expressing cells, top panel, table 'Ec50 (pM)'.

Experiment [3] has as its target T2, HA-tagged human ILT7 on CT-550 cells. Kind of experiment: cell-based or functional assay.
Experiment [4] has the same target. Kind of experiment: flow cytometry on CT-550 cells (human ILT7), top panel, table 'Ec50 (pM)'. Here is the method:
as §1

In experiment [5] the target is T1, cynomolgus ILT7. As to the kind of experiment: flow cytometry on CynoILT7 CT-125 cells (cynomolgus ILT7), bottom panel, table 'Ec50 (pM)'. Here is the method: as §1

T1 sequence (P59901 other isoform, or with tags, fused parts or gaps limits assumed): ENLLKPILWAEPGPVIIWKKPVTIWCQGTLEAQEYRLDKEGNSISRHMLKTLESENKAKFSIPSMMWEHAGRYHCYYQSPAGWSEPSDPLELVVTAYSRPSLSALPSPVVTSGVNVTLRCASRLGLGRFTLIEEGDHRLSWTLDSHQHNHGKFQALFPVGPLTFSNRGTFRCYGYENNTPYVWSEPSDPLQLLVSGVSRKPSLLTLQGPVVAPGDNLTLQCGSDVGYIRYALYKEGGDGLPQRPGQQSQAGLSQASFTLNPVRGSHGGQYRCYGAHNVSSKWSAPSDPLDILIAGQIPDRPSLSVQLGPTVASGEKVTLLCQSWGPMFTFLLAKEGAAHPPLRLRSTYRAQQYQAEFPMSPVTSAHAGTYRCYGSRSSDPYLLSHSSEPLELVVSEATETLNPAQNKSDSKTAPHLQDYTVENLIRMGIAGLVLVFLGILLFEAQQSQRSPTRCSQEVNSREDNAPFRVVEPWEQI
T2 sequence (P59901 24-499): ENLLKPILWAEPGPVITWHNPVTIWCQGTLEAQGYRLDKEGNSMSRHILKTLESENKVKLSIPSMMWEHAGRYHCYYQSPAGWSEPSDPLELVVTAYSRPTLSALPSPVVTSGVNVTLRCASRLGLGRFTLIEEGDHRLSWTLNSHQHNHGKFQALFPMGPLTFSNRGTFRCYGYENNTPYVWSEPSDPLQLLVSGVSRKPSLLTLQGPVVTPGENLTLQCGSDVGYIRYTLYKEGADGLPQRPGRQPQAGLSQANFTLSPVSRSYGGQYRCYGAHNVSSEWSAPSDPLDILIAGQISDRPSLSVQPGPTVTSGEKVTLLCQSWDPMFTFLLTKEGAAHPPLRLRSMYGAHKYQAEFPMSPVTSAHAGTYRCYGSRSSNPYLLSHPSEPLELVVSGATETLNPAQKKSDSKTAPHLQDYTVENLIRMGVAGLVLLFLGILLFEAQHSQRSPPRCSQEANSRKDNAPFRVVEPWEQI

B1: ILT70083.3 (antibody, V domains shown)
VH: EVQLLESGGGLVQPGGSLRLSCAASGFTFSSYAMSWVRQAPGKGLEWVSAISGSGGSTYYADSVKGWFTISRDNSKNTLYLQMNSLRAEDTAVYYCARRTYYYDSDGHSDVFDIWGRGTLVTVSS
VL: QSVVTQPPSVSAAPGQKVTISCSGSASNIGSNFVSWYQQLPGTAPKLLIYDNDKRDLGIPDRFSGSKSGTSATLGITGLQTGDEADYYCGTWDTSLTVGVFGGGTKLTVL
notes: Engineered (germlined) IgG1 variant of ILT70083
On to B1, for which the EC50 in experiment [1] amounted to 0.777 nM; in experiment [2], 0.596 nM. The “ADCC EC50” value in experiment [3] is above 0.089 nM.

B2: ILT70083.1 (antibody, V domains shown)
VH: EVQLLESGGGLVQPGGSLRLSCAASGFTFSSYAMSWVRQAPGKGLEWVSAISGSGGSTYYADSVKGWFTISRDNSKNTLYLQMNSLRAEDTAVYYCARRTYYYDSDGHSDVFDIWGRGTLVTVSS
VL: QSVVTQPPSVSAAPGQKVTISCSGSASNIGSNFVSWYQQLPGTAPKLLIYDNDKRDLGIPDRFSASISSTSATLGITGLQTGDEADYYCGTWDTSLTVGVFGGGTKLTVL
For the molecule B2, in experiment [3], the “ADCC EC50” value is above 0.089 nM.

B3: ILT70083.4 (antibody, V domains shown)
VH: EVQLLESGGGLVQPGGSLRLSCAASGFTFSSYAMSWVRQAPGKGLEWVSAISGSGGSTYYADSVKGWFTISRDNSKNTLYLQMNSLRAEDTAVYYCARRTYYYDSDGHSDVFDIWGRGTLVTVSS
VL: QSVLTQPPSVSAAPGQKVTISCSGSASNIGSNFVSWYQQLPGTAPKLLIYDNDKRDLGIPDRFSGSKSGTSATLGITGLQTGDEADYYCGTWDTSLTVGVFGGGTKLTVL
notes: as for B1
As for B3, the values for the EC50 in experiment [1] and in experiment [2] were 0.62 nM and 0.353 nM, respectively. In addition, the “ADCC EC50” value in experiment [3] was above 0.089 nM.

B4: ILT70083.9 (antibody, V domains shown)
VH: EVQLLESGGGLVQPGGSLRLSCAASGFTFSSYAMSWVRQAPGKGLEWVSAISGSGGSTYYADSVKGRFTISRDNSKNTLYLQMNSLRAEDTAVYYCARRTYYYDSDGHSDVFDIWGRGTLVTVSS
VL: QSVLTQPPSVSAAPGQKVTISCSGSASNIGSNFVSWYQQLPGTAPKLLIYDNDKRDLGIPDRFSGSKSGTSATLGITGLQTGDEADYYCGTWDTSLTVGVFGGGTKLTVL
notes: as for B1
B4: the concentration for a half-maximal effect (EC50) in experiment [1] turned out to be 0.957 nM; in experiment [2], 0.54 nM. In addition, in experiment [3], the “ADCC EC50” value was above 0.089 nM.

B5: ILT70083.5 (antibody, V domains shown)
VH: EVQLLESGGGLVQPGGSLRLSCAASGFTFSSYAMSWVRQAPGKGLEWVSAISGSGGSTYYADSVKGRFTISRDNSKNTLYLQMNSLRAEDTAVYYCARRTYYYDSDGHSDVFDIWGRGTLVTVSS
VL: QSVVTQPPSVSAAPGQKVTISCSGSASNIGSNFVSWYQQLPGRAPKLLIYDNDKRDLGIPDRFSASISSTSAALAITGLQTEDEADYYCGTWDTSLTVGVFGGGTKLTVL
notes: as for B1
For B5, the EC50 came out at 2.28 nM in experiment [1] and 0.5 nM in experiment [2]. Moreover, the “ADCC EC50” value in experiment [3] was above 0.089 nM.

B6: ILT70083.7 (antibody, V domains shown)
VH: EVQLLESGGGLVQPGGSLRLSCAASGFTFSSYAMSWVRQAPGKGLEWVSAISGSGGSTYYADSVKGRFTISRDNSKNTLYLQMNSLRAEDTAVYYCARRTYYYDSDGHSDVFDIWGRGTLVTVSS
VL: QSVLTQPPSVSAAPGQKVTISCSGSASNIGSNFVSWYQQLPGTAPKLLIYDNDKRDLGIPDRFSASISSTSATLGITGLQTGDEADYYCGTWDTSLTVGVFGGGTKLTVL
notes: as for B1
For the molecule B6, the results for the EC50 in experiment [1] and in experiment [2] were 9.47 nM and 0.905 nM, respectively. In addition, the “ADCC EC50” value in experiment [3] is above 0.089 nM.

B7: ILT70083.8 (antibody, V domains shown)
VH: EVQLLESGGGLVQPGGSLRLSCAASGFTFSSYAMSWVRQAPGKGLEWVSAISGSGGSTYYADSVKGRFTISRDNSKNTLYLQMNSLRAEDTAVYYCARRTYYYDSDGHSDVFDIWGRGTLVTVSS
VL: QSVVTQPPSVSAAPGQKVTISCSGSASNIGSNFVSWYQQLPGTAPKLLIYDNDKRDLGIPDRFSGSKSGTSATLGITGLQTGDEADYYCGTWDTSLTVGVFGGGTKLTVL
notes: as for B1
In the case of B7, the EC50 came out at 0.711 nM in experiment [1] and 0.437 nM in experiment [2]. The “ADCC EC50” value in experiment [3] is above 0.089 nM.

B8: ILT70083.6 (antibody, V domains shown)
VH: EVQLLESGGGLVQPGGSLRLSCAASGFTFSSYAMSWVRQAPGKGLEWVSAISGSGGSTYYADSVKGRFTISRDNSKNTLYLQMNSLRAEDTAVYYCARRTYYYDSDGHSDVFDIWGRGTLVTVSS
VL: QSVVTQPPSVSAAPGQKVTISCSGSASNIGSNFVSWYQQLPGTAPKLLIYDNDKRDLGIPDRFSASISSTSATLGITGLQTGDEADYYCGTWDTSLTVGVFGGGTKLTVL
notes: as for B1
With B8, the concentration giving a half-maximal response (EC50) in experiment [1] worked out at 1.6 nM; in experiment [2] it was 0.516 nM. Moreover, the “ADCC EC50” value in experiment [3] is above 0.089 nM.

B9: ILT70083.2 (antibody, V domains shown)
VH: EVQLLESGGGLVQPGGSLRLSCAASGFTFSSYAMSWVRQAPGKGLEWVSAISGSGGSTYYADSVKGWFTISRDNSKNTLYLQMNSLRAEDTAVYYCARRTYYYDSDGHSDVFDIWGRGTLVTVSS
VL: QSVLTQPPSVSAAPGQKVTISCSGSASNIGSNFVSWYQQLPGTAPKLLIYDNDKRDLGIPDRFSASISSTSATLGITGLQTGDEADYYCGTWDTSLTVGVFGGGTKLTVL
notes: as for B1
On to B9, for which the EC50 in experiment [1] came out at 15 nM; in experiment [2] it was 0.863 nM. Further, the “ADCC EC50” value in experiment [3] was above 0.089 nM.

B10: ILT70080.1 (antibody, V domains shown)
VH: QVQLVQSGAEVKKPGSSVKVSCKASGDSFRNYAVSWVRQAPGQGLEWMGAMMPSFGTREHSQQFQGRVTLTADESTSTAYMELSSLRSEDTAVYYCAGSRDYNAYHFWTGPPDFWGRGTLVTVSS
VL: SYVLTQPPSVSVAPGKTARITCGGDSVGSTSVHWYQQKPGQAPVMVMFYNSDRPSGIPERFSGSISGNTATLTISRVEAGDEADYYCQVWDTSSDHPEFGGGTKLTVL
notes: Engineered (germlined) variant of ILT70080, tested as IgG1
As to B10, the EC50 in experiment [4] worked out at 0.201 nM; in experiment [5], 0.463 nM. The “ADCC EC50” value in experiment [3] was < 0.0141 nM and 0.008 nM and 0.01 nM.

B11: ILT70080.5 (antibody, V domains shown)
VH: QVQLVQSGAEVKKPGSSVKVSCKASGDSFRNYAVSWVRQAPGQGLEWMGAMMPSFGTREHSQQFQGRVTLTADESTSTAYMELSSLRSEDTAVYYCAGSRDYNAYHFWTGPPDFWGRGTLVTVSS
VL: SYVLTQPPSVSVAPGKTARITCGGDSVGSTSVHWYQQKPGQAPVMVMFYNSDRPSGIPERFSGSNSGNTATLTISRVEAGDEADYYCQVWDTSSDHPEFGGGTKLTVL
notes: as for B10
Consider B11, for which the values for the EC50 in experiment [4] and in experiment [5] were 0.503 nM and 0.612 nM, respectively. In addition, in experiment [3], the “ADCC EC50” value was < 0.0141 nM and 0.0086 nM.

B12: ILT70080.2 (antibody, V domains shown)
VH: QVQLVQSGAEVKKPGSSVKVSCKASGDSFRNYAVSWVRQAPGQGLEWMGAMMPSFGTREHSQQFQGRVTLSADESTSTAYMELSSLRSEDTAVYYCAGSRDYNAYHFWTGPPDFWGRGTLVTVSS
VL: SYVLTQPPSVSVAPGKTARITCGGDSVGSTSVHWYQQKPGQAPVMVMFYNSDRPSGIPERFSGSISGNTATLTISRVEAGDEADYYCQVWDTSSDHPEFGGGTKLTVL
notes: as for B10
Turning to B12, the EC50 in experiment [4] came out at 0.225 nM; in experiment [5] it was 0.503 nM. Besides, the “ADCC EC50” value in experiment [3] was below 0.0141 nM.

B13: ILT70080.7 (antibody, V domains shown)
VH: QVQLVQSGAEVKKPGSSVKVSCKASGDSFRNYAVSWVRQAPGQGLEWMGAMMPSFGTREHSQQFQGRVTLTADESTSTAYMELSSLRSEDTAVYYCAGSRDYNAYHFWTGPPDFWGRGTLVTVSS
VL: SYVLTQPPSVSVAPGKTARITCGGDSVGSTSVHWYQQKPGQAPVLVMFYNSDRPSGIPERFSGSNSGNTATLTISRVEAGDEADYYCQVWDTSSDHPEFGGGTKLTVL
notes: as for B10
Take B13: the EC50 was found to be 0.229 nM in experiment [4] and 0.405 nM in experiment [5]. Also, the “ADCC EC50” value in experiment [3] is < 0.0141 nM and 0.0078 nM.

B14: ILT70080.3 (antibody, V domains shown)
VH: QVQLVQSGAEVKAPGTSVKVSCKASGDSFRNYAVSWVRQAPGQGLEWMGAMMPSFGTREHSQQFQGRVTLSADESTSTAYMELSSLRSEDTAVYYCAGSRDYNAYHFWTGPPDFWGRGTLVTVSS
VL: SYVLTQPPSVSVAPGKTARITCGGDSVGSTSVHWYQQKPGQAPVMVMFYNSDRPSGIPERFSGSISGNTATLTISRVEAGDEADYYCQVWDTSSDHPEFGGGTKLTVL
notes: as for B10
With B14, the EC50 in experiment [4] is 0.198 nM; in experiment [5], 0.467 nM. Besides, in experiment [3], the “ADCC EC50” value was < 0.0141 nM and 0.011 nM.

B15: ILT70080.4 (antibody, V domains shown)
VH: QVQLVQSGAEVKAPGTSVKVSCKASGDSFRNYAVSWVRQAPGQGLEWMGAMMPSFGTREHSQQFQGRVTLSADESTSTAYMELSSLRSEDTAVYYCAGSRDYNAYHFWTGPPDFWGRGTLVTVSS
VL: SYELTQPPSVSVAPGKTAKISCGGDSVGSTSVHWYQQKPGQAPVMVMFYNSDRPSGIPERFSGSISGNTATLTISRVEAGDEADYYCQVWDTSSDHPEFGGGTKLTVL
notes: as for B10
As to B15, the EC50 in experiment [4] was determined as 0.337 nM; in experiment [5], 0.597 nM. For the same molecule, the “ADCC EC50” value in experiment [3] was < 0.0141 nM and 0.0119 nM.
